Results: paper PMC10364586 (Protein Science : A Publication of the Protein Society, 2023)
Values joined by “and” are separate entries in the source; they are usually repeats but may differ in a detail not shown here. Equal entries are not always repeated.

Legend:
[1] = target: T1, PADI4 (peptidyl-arginine deiminase 4), recombinant, dimeric (human, UniProt Q9UM07 1-663); experiment: ITC
[2] = target: T1, PADI4 (peptidyl-arginine deiminase 4), …; experiment: other fluorescence titration

T1 sequence (Q9UM07 whole entry): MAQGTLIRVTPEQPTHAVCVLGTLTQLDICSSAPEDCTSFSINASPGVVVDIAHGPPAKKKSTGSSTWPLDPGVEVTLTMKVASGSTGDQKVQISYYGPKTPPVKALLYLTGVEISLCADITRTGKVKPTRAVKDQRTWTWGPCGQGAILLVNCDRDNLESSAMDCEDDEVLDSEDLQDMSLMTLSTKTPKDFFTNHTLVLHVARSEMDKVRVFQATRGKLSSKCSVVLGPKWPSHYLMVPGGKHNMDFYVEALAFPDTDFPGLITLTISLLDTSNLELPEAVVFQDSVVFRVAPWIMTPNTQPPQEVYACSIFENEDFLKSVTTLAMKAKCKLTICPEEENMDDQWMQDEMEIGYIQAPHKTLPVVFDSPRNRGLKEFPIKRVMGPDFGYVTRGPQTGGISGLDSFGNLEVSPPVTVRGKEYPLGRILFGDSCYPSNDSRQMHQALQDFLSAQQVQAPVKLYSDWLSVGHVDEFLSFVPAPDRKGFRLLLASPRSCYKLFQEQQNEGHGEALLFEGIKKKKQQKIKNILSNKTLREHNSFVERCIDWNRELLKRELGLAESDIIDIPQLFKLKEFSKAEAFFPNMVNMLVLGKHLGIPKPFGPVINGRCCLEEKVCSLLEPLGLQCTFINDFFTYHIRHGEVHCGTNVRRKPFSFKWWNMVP

B1: His-tagged N-MDM2 (N-terminal region of MDM2, residues 6-125 of the intact protein) (domain or fragment, UniProt Q00987 6-125, looked up)
chain: MSVPTDGAVTTSQIPASEQETLVRPKPLLLKLLKSVGAQKDTYTMKEVLFYLGQYIMTKRLYDEKQQHIVYCSNDLLGDLFGVPSFSVKEHRKIYTMIYRNLVVVNQQESSDSGTSVSEN
modifications: 15N-labelled in the NMR experiment only
Which results are given for B1?
Kd [1]: 1 ± 0.2 µM; Kd [2]: 5 µM and ~6 µM
